Changes are numbered by the printed parent chain.
T1: MdNAC104-His (Malus domestica, UniProt D9ZJ88 1-204)
T1 sequence: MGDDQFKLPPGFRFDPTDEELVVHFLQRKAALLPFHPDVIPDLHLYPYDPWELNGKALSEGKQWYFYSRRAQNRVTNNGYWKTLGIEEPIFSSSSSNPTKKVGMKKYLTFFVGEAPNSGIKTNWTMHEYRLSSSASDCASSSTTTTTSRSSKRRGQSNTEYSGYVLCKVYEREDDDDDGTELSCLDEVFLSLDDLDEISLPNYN

B1: MdFSD2-P3 (dsDNA)
DNA 1: GTCATTTTGGACGAAAACTTTAATGAAAAT
DNA 2: ATTTTCATTAAAGTTTTCGTCCAAAATGAC
B2: MdCBF3-P1-mut (dsDNA)
DNA 1: TATATATATTAAAAAAGATTGGGTGATGAG
DNA 2: CTCATCACCCAATCTTTTTTAATATATATA
B3: MdANS-b-P1 (dsDNA)
DNA 1: GGTGAGATGTCACATGTACAACAGCCACAT
DNA 2: ATGTGGCTGTTGTACATGTGACATCTCACC
B4: MdCBF1-P1-mut (dsDNA)
DNA 1: CATCCCCAAAAAAAGTACACAACCAACACA
DNA 2: TGTGTTGGTTGTGTACTTTTTTTGGGGATG
B5: MdCBF3-P1 (dsDNA)
DNA 1: TATATATATTCATGTGGATTGGGTGATGAG
DNA 2: CTCATCACCCAATCCACATGAATATATATA
B6: MdCHS-b-P4 (dsDNA)
DNA 1: TCCTTTTTACGAAAGTGACATTACAACGAA
DNA 2: TTCGTTGTAATGTCACTTTCGTAAAAAGGA
B7: MdF3H-a-P1 (dsDNA)
DNA 1: CAAACACAAAACGTATTTCGTTTGAGCCAA
DNA 2: TTGGCTCAAACGAAATACGTTTTGTGTTTG
B8: MdF3H-a-P2 (dsDNA)
DNA 1: ACATAGATGAATACATGTCACCGCCATAAT
DNA 2: ATTATGGCGGTGACATGTATTCATCTATGT
B9: MdCHI-P1 (dsDNA)
DNA 1: CTTTTGAGTTGGTTTCGTTGAAGACTTTTT
DNA 2: AAAAAGTCTTCAACGAAACCAACTCAAAAG
B10: MdF3H-a-P3 (dsDNA)
DNA 1: GTTACCCCATATGACCATGTAACCGTCTGA
DNA 2: TCAGACGGTTACATGGTCATATGGGGTAAC
B11: MdCBF1-P1 (dsDNA)
DNA 1: B4 DNA 1 with A9C, A10G
DNA 2: B4 DNA 2 with T21C, T22G
B12: MdPRXR1.1-P2 (dsDNA)
DNA 1: TTTGTAACTAACGGAAAACTTAATACAAAA
DNA 2: TTTTGTATTAAGTTTTCCGTTAGTTACAAA
B13: MdF3H-a-P5 (dsDNA)
DNA 1: CAATTGAGTAATTTCGTTCTTAATTCTTTT
DNA 2: AAAAGAATTAAGAACGAAATTACTCAATTG
B14: MdF3H-a-P7 (dsDNA)
DNA 1: CAAAAATATTTTCCGTAATGAAGTGTCTTG
DNA 2: CAAGACACTTCATTACGGAAAATATTTTTG
B15: MdCHS-b-P2 (dsDNA)
DNA 1: GATGTGGAACATGTGTGGCTATTAGGTTGGTATTCACACGAAATACGACCTACTATATAC
DNA 2: GTATATAGTAGGTCGTATTTCGTGTGAATACCAACCTAATAGCCACACATGTTCCACATC
B16: MdANS-b-P4 (dsDNA)
DNA 1: GATTCCTATATATACGTAACTAGCTCATAG
DNA 2: CTATGAGCTAGTTACGTATATATAGGAATC

Biological target: T1, MdNAC104-His
Assay: EMSA; LightShift Chemiluminescent EMSA kit (Thermo) per manufacturer; buffer, salt, pH and temperature not stated
Conditions: protein: recombinant; tags: His (pET32a); chain copies: 2; label: biotin; blunt

Binder	binding result
B1	binds
B2	no binding
B3	binds
B4	no binding
B5	binds
B6	binds
B7	binds
B8	binds
B9	binds
B10	binds
B11	binds
B12	binds
B13	binds
B14	binds
B15	binds
B16	binds
